Our source for the stoichiometry N, Kd and fold change of Kd against wild-type L-CICp values is article PMC3796545, “Protein-Protein Interactions as a Strategy towards Protein-Specific Drug Design: The Example of Ataxin-1” (PLoS ONE, 2013).

What is called stoichiometry N is the number of molecules, sites or subunits per partner or assembly. What is called Kd is the free concentration of one partner at which half of the binding sites on the other are occupied at equilibrium, for simple one-to-one binding. The low end stands for higher affinity, the high end for lower affinity.

In test [1] the target is ATX1 AXH (residues A567-K689 of human ATX1) (human). The test can be described thus: NMR relaxation (T1, T2, rotational correlation time); free AXH, before addition of the peptide; 27°C, 600 MHz.
Test [2] has the same target. Nature of the test: ITC; 0.041 mM AXH in the cell, 0.410 mM peptide in the syringe, 21 aliquots; 25°C; 50 mM Tris-HCl pH 7, 50 mM NaCl, 2 mM TCEP; single-site model; averages of three measurements. (In ITC the heat of successive injections is recorded.)
Test [3] deals with T1, ATX1 AXH (residues A567-K689 of human ATX1) (human).
T1 chain: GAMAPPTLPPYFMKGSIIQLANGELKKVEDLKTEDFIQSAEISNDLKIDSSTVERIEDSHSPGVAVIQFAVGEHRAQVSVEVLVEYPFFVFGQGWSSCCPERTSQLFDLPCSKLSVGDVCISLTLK
The test can be described thus: ITC.

As for “ATX1 AXH (residues A567-K689 of human ATX1) (domain or fragment)”, the stoichiometry N in test [1] worked out at 2.

B1: CICp (peptide)
peptide: PWHSLVPFLAPSQ
B1 gave a dissociation constant (Kd) in test [2] of 8000 nM. In other words, the single-digit micromolar range.

B2: L-CICp with W37 mutated to alanine (peptide)
peptide: VFPAHSLVPFLAPSQ
As to B2, binding in test [3] was characterised by a dissociation constant (Kd) of 2600 nM. In addition, in test [2], the fold change of Kd against wild-type L-CICp was 100 fold.

B3: L-CICp with L40 mutated to alanine (peptide)
peptide: VFPWHSAVPFLAPSQ
Consider B3, for which the Kd in test [3] was 500 nM. The fold change of Kd against wild-type L-CICp in test [2] was determined as 10 fold.

B4: L-CICp with H38 mutated to alanine (peptide)
peptide: VFPWASLVPFLAPSQ
In test [3], B4 registered a Kd of 50 nM. That is a double-digit nanomolar value.

B5: L-CICp with P46 mutated to alanine (peptide)
peptide: VFPWHSLVPFLAASQ
As for B5, the Kd in test [3] worked out at 20 nM.

B6: L-CICp (peptide)
peptide: VFPWHSLVPFLAPSQ
For B6, the equilibrium dissociation constant (Kd) was 30 nM in test [3] and 33 nM in test [2].
